Results as given in patent publication US20140162292A1 (TOKYO METROPOLITAN INSTITUTE OF MEDICAL SCIENCE, published 2014).
Where no end group is shown, it is not given here. [ ]: non-standard residue; d: D form. pS = N[C@@H](COP(=O)(O)O)C(=O)O

Columns and labels:
[1] = target: T1, mouse Keap1-DC (aa321-609) (mouse, UniProt Q9Z2X8 321-609); test: isothermal titration calorimetry, 25 C, peptide injected into Keap1-DC
T1 construct: also called Keap1-DC domain
Method: (§1) First, isothermal titration calorimetry was performed using MicroCal iTC₂₀₀ System (GE Healthcare) at 25° C. […] The binding data were analyzed using Origin 7 software (GE healthcare).

[2] = target: T1, mouse Keap1-DC (aa321-609); test: isothermal titration calorimetry
Method: as §1

T1 sequence (Q9Z2X8 321-609 limits assumed): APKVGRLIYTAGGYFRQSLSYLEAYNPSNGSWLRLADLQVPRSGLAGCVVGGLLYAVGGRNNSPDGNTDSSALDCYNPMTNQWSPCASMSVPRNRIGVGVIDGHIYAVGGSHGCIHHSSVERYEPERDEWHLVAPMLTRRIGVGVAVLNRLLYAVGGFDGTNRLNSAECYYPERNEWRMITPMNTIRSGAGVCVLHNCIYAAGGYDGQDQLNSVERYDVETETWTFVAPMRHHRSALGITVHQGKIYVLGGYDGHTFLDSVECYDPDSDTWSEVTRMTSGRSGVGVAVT

| Ka [1] | fold binding affinity against KIR in the non-phosphorylated p62 [2] | Binder |
| --- | --- | --- |
| 56700 M⁻¹ | – | VDPSTGELQ (also called non-phosphorylated p62-KIR; KIR in mouse non-phosphorylated p62) [non-phosphorylated KIR (348-VDPSTGELQ-356) of mouse p62] |
| 6.83e+06 M⁻¹ | – | LDEETGEFL (also called ETGE motif of mouse Nrf2) [Nrf2-ETGE motif (76-LDEETGEFL-84) of mouse Nrf2] |
| 5.12e+06 M⁻¹ | ~100 times | VDP[pS]TGELQ (also called phosphorylated p62-KIR; KIR in mouse phosphorylated p62) [phosphorylated KIR (VDP(pS)TGELQ) of mouse p62] |
